Data published in publication PMC5491343 (SLAS discovery, 2016).
Square brackets hold non-standard residues; d marks the D form. Ends that are not written are not given here. Peptide text beside a SMILES is read from it. * marks the point of attachment. X1 = CN(C)c1ccc2c(-c3ccc(C(=O)NCCCCCN4C(=O)CC(*)C4=O)cc3C(=O)[O-])c3ccc(=[N+](C)C)cc-3oc2c1; pY = N[C@@H](Cc1ccc(OP(=O)(O)O)cc1)C(=O)O

Columns and labels:
ZAP-70 = biological target: T1, ZAP-70 (Homo sapiens, UniProt P43403); assay: TR-FRET ZAP-70:2pY binding / inhibition assay; details: read-out: KD, ZAP-70 binding to AlexaFluor488-2pY
T1 sequence (P43403 1-606): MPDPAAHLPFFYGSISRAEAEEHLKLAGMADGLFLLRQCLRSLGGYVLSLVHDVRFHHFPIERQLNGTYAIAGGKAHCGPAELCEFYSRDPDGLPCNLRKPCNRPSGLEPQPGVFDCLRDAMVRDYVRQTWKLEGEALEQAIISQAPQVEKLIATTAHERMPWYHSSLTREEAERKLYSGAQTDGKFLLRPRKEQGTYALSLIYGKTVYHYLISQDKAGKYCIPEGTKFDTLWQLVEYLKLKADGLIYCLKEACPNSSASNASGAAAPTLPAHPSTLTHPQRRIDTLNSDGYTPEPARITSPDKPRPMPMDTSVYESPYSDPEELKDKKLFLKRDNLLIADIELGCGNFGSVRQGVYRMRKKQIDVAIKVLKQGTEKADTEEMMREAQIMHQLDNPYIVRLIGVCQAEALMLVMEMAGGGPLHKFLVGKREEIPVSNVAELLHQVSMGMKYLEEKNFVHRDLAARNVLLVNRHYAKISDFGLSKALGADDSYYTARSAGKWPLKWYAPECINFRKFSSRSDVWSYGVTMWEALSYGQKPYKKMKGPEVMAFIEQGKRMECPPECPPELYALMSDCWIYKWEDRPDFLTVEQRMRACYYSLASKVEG

[1] = biological target: T2, isolated tandem SH2 domains of ZAP-70 (Homo sapiens, UniProt P43403); assay: Fluorescence polarization assay with the isolated tandem SH2 unit; type: binding; details: data not shown
T2 sequence (P43403 1-259 limits assumed): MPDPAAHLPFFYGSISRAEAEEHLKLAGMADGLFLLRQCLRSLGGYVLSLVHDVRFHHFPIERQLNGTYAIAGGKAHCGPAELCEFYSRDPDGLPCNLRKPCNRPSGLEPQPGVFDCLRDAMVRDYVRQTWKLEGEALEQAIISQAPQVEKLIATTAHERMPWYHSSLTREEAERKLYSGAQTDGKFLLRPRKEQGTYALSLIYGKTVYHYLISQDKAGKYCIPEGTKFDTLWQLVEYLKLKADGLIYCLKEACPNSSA

ZAP-Src chimera = assay: Fluorescence polarization 2pY binding to ZAP-Src chimera; details: read-out: binding constant for 2pY peptide and the ZAP-Src chimera; FP, TAMRA-2pY
[2] = biological target: 2pY ITAM peptide ITAM (Homo sapiens) (UniProt P20963); details: cited from earlier work
ZAP-70 Y315F/Y319F = biological target: T3, ZAP-70 Y315F/Y319F (UniProt P43403 1-619, Y315F | Y319F); assay: fluorescence polarisation
T3 sequence (looked up): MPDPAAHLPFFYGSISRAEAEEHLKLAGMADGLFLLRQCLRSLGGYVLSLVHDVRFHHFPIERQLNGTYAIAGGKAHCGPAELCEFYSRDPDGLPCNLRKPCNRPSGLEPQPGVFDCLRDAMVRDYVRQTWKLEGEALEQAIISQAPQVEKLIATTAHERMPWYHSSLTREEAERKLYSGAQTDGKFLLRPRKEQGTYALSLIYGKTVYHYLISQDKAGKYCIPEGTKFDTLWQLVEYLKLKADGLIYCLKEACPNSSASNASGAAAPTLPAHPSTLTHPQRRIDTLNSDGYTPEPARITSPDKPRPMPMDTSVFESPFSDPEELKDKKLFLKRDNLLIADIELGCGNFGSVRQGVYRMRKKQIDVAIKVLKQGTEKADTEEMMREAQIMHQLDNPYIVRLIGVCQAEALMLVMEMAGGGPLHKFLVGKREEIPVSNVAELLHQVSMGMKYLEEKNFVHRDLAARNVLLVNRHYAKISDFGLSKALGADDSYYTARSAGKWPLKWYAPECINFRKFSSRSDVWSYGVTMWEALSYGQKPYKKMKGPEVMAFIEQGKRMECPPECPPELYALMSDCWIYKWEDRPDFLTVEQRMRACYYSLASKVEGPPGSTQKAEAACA

[3] = biological target: T4, ZAP-70 (zeta-associated protein of 70 kDa), construct spanning residues 1-606, wild type (UniProt P43403 1-606); assay: fluorescence polarisation
T4 sequence (looked up): T1 sequence (P43403 1-606)

Chain of ZAP-70 (from UniProt P43403) (P43403 whole entry): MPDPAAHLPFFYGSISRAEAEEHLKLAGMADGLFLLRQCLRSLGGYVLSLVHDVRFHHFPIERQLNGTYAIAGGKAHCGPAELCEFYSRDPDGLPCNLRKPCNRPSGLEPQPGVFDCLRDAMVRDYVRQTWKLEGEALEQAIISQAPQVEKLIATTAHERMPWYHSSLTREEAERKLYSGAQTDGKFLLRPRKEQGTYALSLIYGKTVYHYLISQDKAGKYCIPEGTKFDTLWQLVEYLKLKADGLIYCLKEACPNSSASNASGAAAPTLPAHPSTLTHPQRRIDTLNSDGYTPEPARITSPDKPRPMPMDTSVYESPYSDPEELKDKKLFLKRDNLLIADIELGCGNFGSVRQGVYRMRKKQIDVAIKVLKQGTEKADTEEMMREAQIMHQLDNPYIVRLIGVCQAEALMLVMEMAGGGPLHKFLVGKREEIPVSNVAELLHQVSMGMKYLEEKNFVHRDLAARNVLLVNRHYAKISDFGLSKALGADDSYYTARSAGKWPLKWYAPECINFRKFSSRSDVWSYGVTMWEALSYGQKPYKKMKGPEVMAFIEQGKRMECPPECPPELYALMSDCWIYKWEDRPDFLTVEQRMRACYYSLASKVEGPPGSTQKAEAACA

Molecule: 2pY: fluorescently labeled doubly phosphorylated ITAM peptide of the ζ chain (CGNQLpYNELNLGRREEpYDVLD) (C(TAMRA C5 maleimide)GNQL[pY]NELNLGRREE[pY]DVLD)
- Kd (ZAP-70): 55.4 ± 7.1 nM
- dissociation constant, tandem SH2 unit and 2pY peptide [1]: nearly identical to the Src-ZAP fusion protein

Molecule: CC(C)C[C@H](NC(=O)[C@H](CC(N)=O)NC(=O)[C@H](CC(C)C)NC(=O)[C@H](CCC(=O)O)NC(=O)[C@H](CC(N)=O)NC(=O)[C@H](Cc1ccc(OP(=O)(O)O)cc1)NC(=O)[C@H](CC(C)C)NC(=O)[C@H](CCC(N)=O)NC(=O)[C@H](CC(N)=O)NC(=O)CNC(=O)[C@@H](N)CSC1CC(=O)N(CCCCCNC(=O)c2ccc(-c3c4ccc(=[N+](C)C)cc-4oc4cc(N(C)C)ccc34)c(C(=O)[O-])c2)C1=O)C(=O)NCC(=O)N[C@@H](CCCNC(=N)N)C(=O)N[C@@H](CCCNC(=N)N)C(=O)N[C@@H](CCC(=O)O)C(=O)N[C@@H](CCC(=O)O)C(=O)N[C@@H](Cc1ccc(OP(=O)(O)O)cc1)C(=O)N[C@@H](CC(=O)O)C(=O)N[C@H](C(=O)N[C@@H](CC(C)C)C(=O)N[C@@H](CC(=O)O)C(=O)O)C(C)C (stereo partly drawn) [TAMRA-2pY] (H-C(X1)GNQL[pY]NELNLGRREE[pY]DVLD-OH; N-terminus and C-terminus assumed)
- Kd (ZAP-Src chimera): 15.8 ± 1.3 nM

Molecule: ZAP-70 (from UniProt P43403)
- Kd [2]: 76.6 nM

Molecule: C(TAMRA C5 maleimide)GNQL[pY]NELNLGRREE[pY]DVLD
- Kd (ZAP-70 Y315F/Y319F): 82.2 ± 5.6 nM
- Kd [3]: 45.7 ± 4.7 nM
